Results taken from the DeepSol protein solubility set.

Assay: soluble on expression in E. coli; label from the status in PepcDB or PDB records

Sequence | soluble on expression in E. coli
MGYDVTRFQGDVDEDLICPICSGVLEEPVQAPHCEHAFCNACITQWFSQQQTCPVDRSVVTVAHLRPVPRIMRNMLSKLQIACDNAVFGCSAVVRLDNLMSHLSDCEHNPKRPVTCEQGCGLEMPKDELPNHNCIKHLRSVVQQQQSRIAELEKTSAEHKHQLAEQKRDIQLLKAYMRAIRSVNPNLQNLEETIEYNEILEWVNSLQPARVTRWGGMISTPDAVLQAVIKRSLVESGCPASIVNELIENAHERSWPQGLATLETRQMNRRYYENYVAERIPGKQAVVVMACENQHMGDDMVQEPGLVMIFAHGVEEI | soluble
MPMINALGLLEVDGMVAAIDAADAMLKAANVRLLSHEVLDPGRLTLVVEGDLAACRAALDAGCAAAMRTGRVISRKEIGRPDDDTQWLVTGFNRQPKQPVREPDAPVIVAESADELLALLTSVRQGMTAGEVAAHFGWPLEKARNALEQLFSAGTLRKRSSRYRLKPH | not soluble
MGSDKIHHHHHHMHSLTPEYLAALCFDGTQVATLRTLGEYQGKQQLYAAQSPEALKGLRQIAVVESTESSNRLEGVVVAPSRLKSLVIRNATPKSRSEQEIAGYRDALALIHESAAHMPFSEGVVLQLHTLLYRYMPQAGGRWKATNNDIIERHPDGTSRLRFQPVASHLTPMAMADLTGRYATALDQHLADPLVLVPLAMLDLLCIHPFPDGNGRMSRLLTLLLLYHFDYAVGRYISLERIFEETKESYYETLEASSQGWYQGQHDVKPWLDYFWGALLRAYREFEERVGTIERGRGSKGDRVRAEVLGRSLPFSISEIEEACPGVSRDMVRLVLRAMKSEGLIESTGKGRGAKWIKQG | not soluble
MHGIDLHTHSNISDGTLSPSCLVDAAIACGIHTLALTDHDTMDGLETAIQQAQGHDIQIISGAEISSQWSRPNTKKAYGVHIVALNMQNPEPLLDALVIQKNIRAERAQQICQILQQCTGQDIYTDVLLKVEGEPDRITRTHIAKALVEKEIVARPQQAFDRFLKEGKRAYVKFDGLNLADTIRIIHESEGFAILAHPTRYDLSSTNVRYLIELFAKMGGDAVELPPSVDPVSTRQMIDRIIQQFDLKVSIGSDFHGENMPWIKLGHTPQPNPHQTGIWESFR | not soluble
MGSDKIHHHHHHMCSVSGVLILNPKNFEKVELKLASILKKAEDRGRDSFGIVVIQKDGTVKVRKSIGKPSEKEELLYGILDEDSRVVIANNRAEPTTEYVRQKTEDDIQPFIGDRYIVTHNGIIANDLELEKKYELKRKTKIDSAILPLLLDKTWDGNLEALKGILEQIKGSFALVIGDKKNPDRIFLAQNFKPLYMAYDHSLESLFFTSLDEYFDAKPFDPVNITKLEPYSVVMVTSNKLITTLPIMEKRKKYRVLVVASGGLDSTVAATKLLREGHEVTLIHFNYHHKAEEKEREAVRKIAEYLQIPLLEINTDLFKIIGHATLIKGGGEIVKDRKGEEGAEFAHEWVPARNLIFFSVSLAIAEAYGYDAIASGINLEEAGAYPDNEMEFIRMLNKLSPYATGPNKRIEILMPVGNLVKHEIVKLGYEIGAPLHLTWSCYEGGQKHCGKCGPCYMRKMAFRINGLKDPVEYDEE | not soluble
MSLDTYTTSEVADLIGVHPNTVRLYEELNLIPKPKRNTNGYRIFNDFHIEQFRFARTALKIEVVQRGLRKDALEIVRTSANRDFDKAISLVNQYLQQLEIEKSNAEEALTIVAQILNGNTPETNKLFLTRKETAEHLNEGHHHHHH | not soluble
MKQLTLAKTVKGVGIGLHKGEPIEITLEPLEANSGIVFFRSDLNASYKASPENVINTQMATVLGDDRGFISTIEHLMSAINAYGIDNVRIVLNANEAPVMDGSSISFCMMLDEAGVKELDAPKKIMVIKKPIEVRDGNKFVRLTPTKEPRINYTIKFDNAVIGEQSYNFEFSKKNYIENIARARTFGFLKDVQALRSMNLALGGSLENTIVVDENRILNPEGLRFKDEFVRHKILDAIGDLTLLGYRVFGDYTSYAGSHHLNHLLTKEVLKDKDAYEIVSLEKTTQKAYEKVFALEHHHHHH | soluble
MAVSLSKGGNVSLTKEAPGLTAVTVGLGWDVRTTTGTDFDLDASAIAVNPTGKVYSDAHFVFFNNKQTPDQTIVHTGDNRTGEGAGDDEAINVNLAGLPADVDKIVFPVSIYDAENRSQNFGQVRNAYIRIVNQAGGAEIARYDLSEDAATETAMVFGELYRNGAEWKFRAVGQGYASGLVGIAQDFGVNV | not soluble
MAHHHHHHMEINISNITNSSNNKKERVNIHSHIKGLGVNTNIYLHENEISLSDEKYSMFFDNSCGLVGQFKAREASLFLVDLIKQKKLAGKCILLAGPSGSGKSALAIGISREINRKMPFVFLSGSEVYSNEIKKTEVILEAFRKSIHIKIKEEKLVYEGEVVDMVVEENECLYSLNKAKQINAIIITLKSVKGSKTLRLAPKIHEQIAREKIKIGDVIYIETNTGHVKRLGRCNDYAKEYDIEFDEYVSLPKGEVHKKKEVVQQISLHDIDLANANPTVGEDLASVLNSYLRPKKTEITEKLRVEINKTVNKFLESGLAEIIPGVLYIDEAHMLDIECFSYLNRAIESPLAPILIMATNRGICTVKGTDNIEPHGIPVDLLDRLIIIKTFPYTLKEIVQILALRAQTEKINITEEGMNYLAKIGIQSSLRFAMLLLEPSRILATLEGNTIIDIKHIEQADELFMDAKTSAHRVVDQSNKFVN | not soluble
MGSDKIHHHHHHMSRFVGTETEYGIATPSNTMLSPIVTSTHAVVAFSLGERCASQARWDFSEESPLRDLRGFDLRRYRTVPVVDPHALGVANSVLINGGRFYVDHAHPEYSSPETSSAFQAMLYDAAGDVVMNRAVELVAENSQRKHSVLEHHDPCPPLKIYKNNVDGKGASYGSHENYLYNRETPFEEISSGLTPFFITRQVIIGAGRVGIGQYGEKSGFQISQRADYIEQEISLETTLNRGIINTRDEPHADSEHFGRLHVIIGDANMSQTSNFLKIGMTTLVLDAIEAGVDFSDLAVANPVAEVSAISHDLTLTHKIVLRDGRTLTALELLDEYRKRVSPQSDDDLDVLKEWSEILVLLQKGPFYAADRLDWCAKWQLISSFIKRGVSIDDPKIQLIDLQYADIDPAKSLYHALVRKGRMRTLVSTEQINNAAWSPPKGSRAYLRGSLISRFPDSVVQASWDSITLQTSRDQATKIKMPVVQSLSAEAIATIDTASSVKEVATILSQWLPVTTISLT | not soluble
MDNAHTPPFAGLTPDAILDAVESLGLRASGSLLALNSYENRVYQVGLDDAAPLVAKFYRPARWSDAAILEEHAFSLQLAEREIPAVPPLAFGGRTLHGHGGFRFALFERRGGRVPELDRDETLQWVGRFLGRIHALGRTEGYRHRPTLDMQSFGREPVDFVLGGGWLPPELEAVYRGVAEQALQGVARCFERAGPVAQLRLHGDCHVGNLLWTDAGPHFVDFDDSRMGPAVQDLWMLLSGERAEQSRQLGEVLAGYEDFCEFDLRELNLLEALRTLRLLHYSAWLARRWHDPAFPAAFPWFGAPRYWEEQILALREQIALMDEPPLWSCLEHHHHHH | not soluble
MHDEQFCVGYNFLEAEDTFREDGLEPVTLAIHGTPEVLQLLGNKPLNWDGPISFGLFVDFHSQKALNYISMLHKCDAAFKRQMTVHFAFRISPSQSECPMIQVLGYQDCATFLQKSKQLLEEIEDSFQIYPINLMRNIARRGAKSDLHLIIDTDMMMSTNFAKMVKPIANRMIDGKNKQVLVVRRFETNENELPMSFGDLEEGIENHKTFQFHHKFFFVGHQIPNLMEWFERSHASNDVVAWEIPYTGNDWEVQIILHRNDPYNVEYFPSRVKDMQSLIYKLCRANYTFNLLSHVFNVHKGIKEDDTMYSKVVTAHTKRQGRLRTLSRYVTEIDRKYPDTMKRCGQFLL | not soluble
MSLVSVIILASGNSQRMGQNKLFLKYQGKTFLEHTLTLVNQLDVLERILVVSPENQPAFPLPKNIQLILNHQWQEGQSSSIRLGTEQARGAGYLYLPSDQPLLTPKMLQLVLDKCQRNKIVVPLQKDGCPSSPVLFGNQFRQELLTLTGEKGGRMIYERFPEAVQMLRIATPGRLKDIDTPEEYQKLIQETNSLEHHHHHH | not soluble
MGVFAQNLKFGHINAQEIVSAMPEFAKAQSDIEALDKQLTSELQRTQEEFNKKYQEFQQAIAKDSLPANIAERRQKELQDMMQRQEQFQQEAQQQMQKAQADAMAPIYKKLDDAIKAVGAAEGVIYIFDLARTPVAYVNESQSINLTPKVKTQLGIK | not soluble
MGSDKIHHHHHHMKSVGQALENQGRVPRNTNDELIQMILADAQVAEFIKTHQLSQREINISMSKFNQFLIERQKFKNKDSQYIAKGYEPILVMNEGYADVSYLETRELIEAQKKQAISDRINLVNLPKSYRNIRMTDFDINNESRMKAMSQLLDFVETYPSYNHKGLYLYGDMGVGKSYLMAAMARELSERKGVSTTLLHFPSFAIDVKNAISSGTVKDEIDAVKSVPILILDDIGAEQATSWVRDEILQVILQHRMLEELPTFFTSNYSFNDLERKWANIKGSDETWQAKRVMERVRYLAIEFHLEGPNRR | not soluble
MPKVEIAPSEIKIPDNVLKAKLGFGGAEEIPEEFRKTVNRAYEELLDAAKPVVLWRDFEVDGSLSFDDMRLTGELATKHLSGSKIITVFLATLGKKVDEKIEEYFRKGEDLLAFFIDGIASEMVEYALRKVDAELRMKRSNLEGSFRISPGYGDLPLSLNKKIAEIFKEEVDVNVIEDSYVLVPRKTITAFVGWREKNEKQT | not soluble
QNDLMIQSQVKFYTILFSARRATPELEIPEGSFYNGIRGYNLFVAKKDRRTGMLHDMMIYDHSQGFADARIIVADSGKLKMDEGKTFLTLMLHSGETFQNLRSQQTESNAPTPYMRERFRTKEIVIPFDANFSLMDEGAMRGEYVGKNLIQLQRFIDTVTLRVDSASFRNANNLYIQTYNAR | not soluble
LVIVTDPHQRIEWVNAAFEQQTGHSGPSVRGQPLCAVLQGEPAPGGCGDRLRAMLAEGRTARAEVEATAACGRRFWLDVSLQPLLDDEGALDGYMAVASDIT | not soluble
MVLSVVVVGKPRCRSIAVAARERLHRYGEYPMSSNNASGKVVSVDEQAFENAGEQAADEDGFPVVDETPEFEAAVEQETQAKVDANHPDGIADTSEDRIHGVTLEQEERIRAREAELERISAQAELGTQDGREQRTRDIAAKRSAVRRAEFQTRAASVDPMADPERDDPRAELTQEQLAAVNKQSMRLAEKLDGWSRAAIGRRLGEAVVGGKDVTSAVVGVFEELQTAPGTVIPIGKLEDVNRKEVSIEGTVTRLWKPSSAAISQVGLIEDESGKTKFTSWVASEQPWIEEGEHVRIHGAAKNWYNGRVSVALTGWSTVHFPERGRWWEALEHHHHHH | not soluble
MATITQRNGKWRVQIRMKGVSRSATFERASDAKAWAARIESQIMDGIQGNAPRNTIFADLIRRYLSEVTPSKRGAREESYRIGRALKTPLAKVRLADLRPQDFADWRDQRLQEVSPTSVGRELTTLSAVCEHAMKEWGLLRENPVRKISKPKKSRARTRRPTEQEIADICAALLYRPNEKPKMAVQRVAVAVLFAIETAMRAGEICGLKWADVNMRRRIAHLPITKNGDSRDVPLSLRAAELIEQLRGIDDTWVFSLDAKSLDVLFRRARDNCGIQGLHFHDTRREALTRLSKKVPVEVLAKISGHRDLRILLNVYYRPDMADIAKMLD | not soluble
MDWFGVDAGTLREGDRADFVVIDPNCLNSDVDAYHEETVPFYGGLSRMVNRNDDAVVATAVNGTVVFGKGEFRDGYGLEHHHHHH | not soluble
MDGAATKFFRPWESHGSYHHSLPSISPPDSPASTSASSSSSSIGANELTTKRRKCERCTCPNCKAIKHGDRGSQHTHLCSVPGCGKTYKKTSHLRAHLRKHTGDRPFVCDWFDCGKRFDRSDQLIRHKRTHTKEYRFACKFCIRQFSRSDHLQQHLTSVHNIVVVD | not soluble
MEERGDSEPTPGCSGLGPGGVRGFGDGGGAPSWAPEDAWMGTHPKYLEMMELDIGDATQVYVAFLVYLDLMESKSWHEVNCVGLPELQLICLVGTEIEGEGLQTVVPTPITASLSHNRIREILKASRKLQGDPDLPMSFTLAIVESDSTIVYYKLTDGFMLPDPQNISLRR | soluble
